Reference: the Human Domainome abundance scans (Beltran et al. 2025)
± gives the uncertainty stated by the source.

B1: SAM and SH3 domain-containing protein 1, residues 630 to 700; numbered along this chain, O94885 (parent)
chain: GRPPQPKSVEDLLDRINLKEHMPTFLFNGYEDLDTFKLLEEEDLDELNIRDPEHRAVLLTAVELLQEYDSN

Variants of: B1
Test: abundance fitness (aPCA) (normalised: wild type 0, dead -1); higher = more abundant; growth selection in yeast, the domain comes from the species named
Details: Homo sapiens

Variant	abundance fitness
I49T	-0.863 ± 0.065
I49C	-0.728 ± 0.072
I49S	-0.876 ± 0.052
I49G	-0.785 ± 0.062
K19I	-0.073 ± 0.042
K19E	-0.434 ± 0.073
K19S	0.085 ± 0.033
K19G	-0.236 ± 0.051
K19P	-0.279 ± 0.043
K19A	-0.055 ± 0.039
D34P	-0.664 ± 0.056
D34V	-0.719 ± 0.055
D34W	-0.704 ± 0.082
D34Y	-0.679 ± 0.059
D51S	-0.49 ± 0.04
D51Q	-0.307 ± 0.048
D51M	-0.845 ± 0.077
D51Y	-0.774 ± 0.06
D51A	-0.659 ± 0.056
D51V	-0.553 ± 0.051
F27T	0.341 ± 0.036
F27E	0.491 ± 0.047
F27D	0.446 ± 0.046
F27L	0.346 ± 0.031

Variant	abundance fitness
F27Y	0.122 ± 0.045
F27C	0.272 ± 0.04
P3L	-0.036 ± 0.036
P3Q	-0.118 ± 0.051
P3K	-0.279 ± 0.055
S8F	-0.984 ± 0.11
S8E	-1.17 ± 0.25
S8M	-1.03 ± 0.14
S8T	-0.244 ± 0.052
S8Q	-0.55 ± 0.1
S8P	-0.758 ± 0.087
E67K	-0.094 ± 0.046
E67S	0.039 ± 0.037
E67V	-0.232 ± 0.044
E67H	-0.165 ± 0.047
E67F	-0.609 ± 0.063
E67T	-0.048 ± 0.04
E67R	-0.167 ± 0.04
E67Y	-0.396 ± 0.056
L13G	-0.752 ± 0.072
L13P	-0.71 ± 0.07
L13D	-0.762 ± 0.1
L13S	-0.887 ± 0.068
L13I	-1.04 ± 0.11

Variant	abundance fitness
L13M	-0.724 ± 0.077
L13H	-0.801 ± 0.096
T35G	-0.442 ± 0.062
P6Q	-0.726 ± 0.1
P6W	-0.092 ± 0.052
P6H	-0.607 ± 0.085
P6A	-0.421 ± 0.056
P6S	-0.533 ± 0.049
Y30T	-0.906 ± 0.07
Y30G	-0.987 ± 0.076
Y30L	-0.557 ± 0.049
Y30K	-0.901 ± 0.099
D32G	-0.585 ± 0.055
D32V	-0.788 ± 0.06
D32N	-0.085 ± 0.049
D32T	0.172 ± 0.036
Q66R	0.33 ± 0.034
Q66T	-0.347 ± 0.044
Q66M	-0.422 ± 0.054
Q66D	-0.49 ± 0.064
Q66N	0.059 ± 0.038
Q66H	-0.035 ± 0.043
Q66S	-0.331 ± 0.039
Q66P	-0.673 ± 0.056

Variant	abundance fitness
M22Y	0.277 ± 0.038
M22D	-0.749 ± 0.077
M22V	0.046 ± 0.035
M22P	-0.999 ± 0.087
M22S	-0.375 ± 0.04
M22C	-0.135 ± 0.043
Y68L	-0.068 ± 0.038
Y68T	0.031 ± 0.045
D11N	-0.605 ± 0.067
D11L	-0.9 ± 0.057
D11R	-0.926 ± 0.07
D11A	-0.607 ± 0.061
D11E	0.148 ± 0.049
P23I	-0.398 ± 0.063
P23L	-0.056 ± 0.037
P23Y	-0.271 ± 0.052
P23E	0.282 ± 0.049
L39E	-0.771 ± 0.1
L39F	-0.973 ± 0.079
L39K	-0.928 ± 0.11
L39Q	-0.892 ± 0.098
L39M	-0.319 ± 0.055
D43T	-0.19 ± 0.039
D43L	-0.894 ± 0.049

Variant	abundance fitness
D43K	-0.117 ± 0.044
D43Y	-0.953 ± 0.076
D43H	-0.201 ± 0.042
V57C	0.107 ± 0.051
V57H	-0.166 ± 0.049
V57L	0.199 ± 0.034
V57I	-0.059 ± 0.048
V57G	-0.195 ± 0.049
V57D	0.089 ± 0.052
E31W	-0.248 ± 0.049
E31K	0.124 ± 0.045
E31I	-0.288 ± 0.049
E31A	0.207 ± 0.033
E31N	0.171 ± 0.04
K7T	0.095 ± 0.04
K7I	-0.086 ± 0.042
K7S	-0.097 ± 0.038
K7F	-0.5 ± 0.053
K7W	-0.873 ± 0.12
K7A	-0.066 ± 0.046
K7P	-0.679 ± 0.063
T60H	0.302 ± 0.041
T60L	-0.579 ± 0.046
T60W	-0.378 ± 0.056

Variant	abundance fitness
T60F	-0.613 ± 0.06
T60P	-0.63 ± 0.064
T60R	0.237 ± 0.032
T60V	-0.735 ± 0.069
L38P	-0.857 ± 0.081
L38S	-0.005 ± 0.036
L38T	0.23 ± 0.041
L38N	0.054 ± 0.053
L38Q	0.175 ± 0.044
L38V	-0.492 ± 0.046
L38E	0.03 ± 0.051
N28A	-0.006 ± 0.04
N28G	-0.157 ± 0.043
N28I	-1.08 ± 0.11
N28E	-0.647 ± 0.098
N28L	-0.855 ± 0.058
N28F	-0.426 ± 0.062
E53W	-0.575 ± 0.075
E53N	-0.146 ± 0.05
E53Q	-0.051 ± 0.049
E53F	-0.673 ± 0.079
E53A	-0.089 ± 0.041
E53Y	-0.557 ± 0.063
E53L	-0.486 ± 0.045

Variant	abundance fitness
E53S	-0.126 ± 0.037
L33V	-0.607 ± 0.058
L33M	-0.64 ± 0.084
L33K	-1 ± 0.13
L33F	-0.697 ± 0.087
L33I	-0.187 ± 0.056
E20V	-0.203 ± 0.054
E20I	-0.244 ± 0.061
E20L	-0.559 ± 0.063
E20K	-0.755 ± 0.11
E20C	-0.124 ± 0.063
L65F	-0.696 ± 0.072
L65K	-0.812 ± 0.084
L65Q	-0.707 ± 0.084
L65T	-0.767 ± 0.063
L65P	-0.88 ± 0.08
N17Y	-0.904 ± 0.086
N17K	-0.341 ± 0.051
N17V	-0.817 ± 0.062
N17I	-0.851 ± 0.086
N17Q	-0.289 ± 0.053
L18R	-1.02 ± 0.066
L18Q	-0.652 ± 0.074
